Experimental data: the Human Domainome abundance scans (Beltran et al. 2025)

B1: FERM and PDZ domain-containing protein 4, residues 75 to 154; numbered along this chain, Q14CM0 (parent)
chain: APRKVEMRRDPVLGFGFVAGSEKPVVVRSVTPGGPSEGKLIPGDQIVMINDEPVSAAPRERVIDLVRSCKESILLTVIQP

Variants of: B1
Experiment: abundance fitness (aPCA) (normalised: wild type 0, dead -1); higher = more abundant; growth selection in yeast, the domain comes from the species named
Conditions: Homo sapiens

Abundance fitness, by site and new letter:
V54: D -0.928 | C -0.03 | N -0.945 | L -0.207 | Q -0.647 | E -0.771 | P -0.994 | W -1.07 | Y -0.911 | I -0.117 | G -0.993 | H -0.942 | T -0.13 | A -0.271 | S -0.627 | K -1.21 | F -0.692
K70: M -0.17 | G -0.093 | P -0.052 | S -0.054 | L -0.306 | C -0.115 | R -0.081 | F -0.256 | W -0.323 | V -0.168 | Q -0.078 | Y -0.153 | E -0.061 | A -0.1 | T -0.098 | N -0.076 | H -0.096 | I -0.311 | D -0.055
I63: W -0.041 | S 0.021 | A 0.005 | D -0.035 | P -0.846 | K -0.032 | Y -0.087 | C -0.093 | F 0.016 | H -0.003 | V -0.002 | M -0.027 | N 0.034 | T -0.061 | L 0.009 | Q -0.001 | R -0.033 | E -0.031
A57: S -0.009 | P -0.816 | M 0.009 | W 0.016 | F 0.016 | I -0.055 | N -0.149 | H -0.083 | Y 0.038 | E -0.022 | Q -0.028 | G -0.233 | K -0.055 | C -0.005 | D -0.052 | R -0.12 | T 0 | L 0.032
C69: S -0.025 | G -0.209 | M -0.1 | N -0.056 | K -0.089 | T -0.044 | P -0.378 | A 0.004 | Q -0.034 | V -0.091 | E -0.059 | L -0.236 | R -0.119 | D -0.323 | W -0.591 | I -0.19 | F -0.159 | H -0.064
R59: N -0.025 | E -0.05 | T -0.03 | D -0.385 | L 0.007 | G -0.007 | V -0.051 | P -0.025 | M -0.039 | Y 0.025 | H -0.059 | W -0.025 | C -0.03 | F 0.005 | S -0.06 | A -0.028 | Q 0.022
P53: E 0.007 | W -0.094 | I 0.116 | V -0.012 | A -0.037 | L 0.004 | T -0.043 | S -0.002 | N -0.005 | Q -0.035 | R -0.038 | G -0.079 | M -0.015 | C -0.029 | K -0.003 | D 0.034 | Y -0.078 | F -0.124 | H -0.03
D51: W -0.234 | V -0.385 | S -0.039 | T -0.079 | Y -0.145 | R -0.069
V62: F -0.17 | A -0.32 | Y -0.248 | E -0.86 | P -0.841 | L -0.199 | W -0.4 | N -0.738 | R -0.917 | H -0.711 | Q -0.745 | G -0.936 | M -0.383 | K -1.03 | S -0.666 | D -0.793 | T -0.25
R61: S -0.029 | M -0.059 | F -0.044 | D -0.021 | N -0.041 | E -0.071 | W -0.082 | A -0.018 | I -0.107 | H -0.012 | P -0.505 | V -0.044 | Q -0.005 | C -0.065 | T -0.037 | K -0.01 | G -0.134 | Y -0.019
E60: S -0.005 | I -0.21 | N -0.028 | W -0.112 | H -0.038 | L -0.137 | Y -0.178 | D -0.049 | C -0.059 | M -0.048 | F -0.183 | R -0.041 | K -0.015 | V -0.131 | P -0.077 | G -0.025 | T -0.03
S72: C -0.111 | A -0.072
S55: T -0.157 | F -0.143 | P -0.027
E71: I -0.261 | N -0.106 | M -0.198 | D 0 | R -0.059 | Y -0.231 | K 0 | H -0.081 | A -0.095 | C -0.149 | T -0.052 | G -0.041 | Q -0.038 | V -0.164 | L -0.232 | P -0.219 | W -0.215 | S -0.055
S68: R -0.048 | T -0.043 | A -0.033 | L -0.092 | P -0.578 | I -0.214 | C -0.082 | Y -0.089 | W -0.21 | F -0.099 | V -0.17 | E -0.007 | D -0.042 | M -0.071 | Q -0.001 | K -0.043
E52: P -0.861 | G -0.321 | W -0.065 | M -0.038 | I -0.053 | S -0.102 | H -0.037 | K -0.066 | L -0.026 | C -0.069 | F -0.083 | T -0.037 | N -0.048 | D -0.071 | Q -0.012 | R -0.053 | Y -0.045
R67: W -0.182 | K 0.002 | T -0.018 | Y -0.06 | N 0.017 | A -0.01 | Q 0.001 | I -0.159 | E 0.005 | F -0.095 | G -0.038 | L -0.105 | S -0.013 | M -0.064 | V -0.079 | D -0.018 | C -0.055 | P -0.808
L65: A -0.056 | R -0.093 | P -0.841 | V -0.105 | Q -0.094 | I -0.052 | Y -0.076 | F -0.109 | T -0.114 | S -0.178 | C -0.158 | M -0.002 | D -0.462 | H -0.205 | N -0.349 | G -0.377 | W -0.244 | K -0.022 | E -0.249
V66: H -0.686 | T -0.18 | K -0.692 | W -0.475 | Q -0.451 | G -0.73 | E -0.427 | F -0.056 | S -0.569 | L 0.022 | A -0.219 | M -0.004 | P -0.881 | I -0.009 | N -0.733 | Y -0.382 | C -0.08 | D -0.681 | R -0.818
P58: E -0.06 | G -0.014 | W -0.474 | S 0.017 | T -0.029 | H -0.09 | L -0.24 | D -0.061 | I -0.29 | N -0.04 | Q -0.091 | K -0.027 | M -0.217 | R -0.063 | V -0.167 | Y -0.25 | C -0.043 | A -0.067 | F -0.33
D64: K -0.06 | N -0.055 | H -0.045 | Y -0.252 | L -0.466 | S -0.023 | G -0.038 | F -0.354 | V -0.593 | W -0.222 | M -0.247 | T -0.109 | C -0.295 | A -0.081 | P -0.51 | R -0.049 | Q -0.013 | E -0.011 | I -0.788
